{"source": "paper PMC5963734", "about": "(Neuron, 2018)", "binders": {"B1": {"name": "fluorescein-labeled PSD-95 peptide 1-13 (peptide)", "peptide": "fluorescein-MDCLCIVTTKKYR", "modifications": "cysteine pairing not given here"}}, "molecular_target": "full length calmodulin (recombinant, Xenopus cDNA), used with Ca2+ (Xenopus, UniProt P0DP33 1-149)", "assay": "fluorescence polarisation", "note": "No end group written: not given here."}
{"binder": "B1", "values": [{"measurement": "binding result", "result": "binds"}]}
